We go through 2 substances from patent US20100210517A1.

The target in assay [1] is recombinant human LRP1 ligand binding cluster II (amino acids 786-1165, C-terminal Fc) (human). The experiment in a line: competition ELISA, inhibition of RAP d3 (2 nM) binding to coated LRP1 cluster II-Fc. (In general: ELISA stands for enzyme-linked immunosorbent assay.)
The target is the same in assay [2]. The experiment in a line: inhibitor pre-incubated with coated LRP1 cluster II-Fc, washed, then RAP d3 added; inhibition of RAP d3 binding.
The next assay concerns the target LRP2 CR89 Y1042W (human) (UniProt P98164). The assay is described as follows: solid-phase assay; OD at the highest ligand concentration as percent of the highest OD of all ligands.

Chain of recombinant human LRP1 ligand binding cluster II (amino acids 786-1165, C-terminal Fc) (human) (Q07954 786-1165): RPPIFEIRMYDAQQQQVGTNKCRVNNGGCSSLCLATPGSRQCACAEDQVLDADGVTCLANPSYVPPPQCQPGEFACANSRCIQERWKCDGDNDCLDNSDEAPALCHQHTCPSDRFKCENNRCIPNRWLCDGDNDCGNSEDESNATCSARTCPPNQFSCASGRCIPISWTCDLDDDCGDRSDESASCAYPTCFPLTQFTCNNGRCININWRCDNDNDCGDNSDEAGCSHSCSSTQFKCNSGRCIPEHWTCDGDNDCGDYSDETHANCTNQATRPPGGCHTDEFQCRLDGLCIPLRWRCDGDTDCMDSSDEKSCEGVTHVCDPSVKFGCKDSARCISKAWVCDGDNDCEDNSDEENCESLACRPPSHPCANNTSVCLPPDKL
Chain of mature human RAP (full-length) (P30533 35-357): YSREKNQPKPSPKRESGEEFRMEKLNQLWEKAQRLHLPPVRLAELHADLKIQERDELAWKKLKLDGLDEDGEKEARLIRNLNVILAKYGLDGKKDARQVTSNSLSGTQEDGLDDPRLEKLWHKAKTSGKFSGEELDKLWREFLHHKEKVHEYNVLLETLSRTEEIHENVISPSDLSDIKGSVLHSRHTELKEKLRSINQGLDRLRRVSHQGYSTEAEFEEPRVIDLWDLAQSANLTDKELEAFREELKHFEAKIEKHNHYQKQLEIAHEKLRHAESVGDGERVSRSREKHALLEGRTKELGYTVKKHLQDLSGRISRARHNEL
Chain of RAP d3 (wild-type domain 3 of human RAP, amino acids 201-319 of mature RAP) (P30533 235-353 A264E): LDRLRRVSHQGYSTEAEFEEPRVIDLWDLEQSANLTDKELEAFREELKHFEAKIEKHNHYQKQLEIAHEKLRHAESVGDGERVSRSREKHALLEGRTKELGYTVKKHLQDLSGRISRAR
Chain of LRP2 CR89 Y1042W (human) (P98164 1025-1102 Y1043W limits assumed): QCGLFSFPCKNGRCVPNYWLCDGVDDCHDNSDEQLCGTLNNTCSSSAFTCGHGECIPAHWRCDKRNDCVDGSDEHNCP

For the substance “mature human RAP (full-length) (from UniProt P30533 35-357) (ligand)”, the figures for the EC50 in assay [1] and in assay [2] were 0.5 nM and 0.3 nM, respectively. Also, the fold better EC50 than monomeric mRAPc peptide in assay [1] was determined as 64 fold.
On to “RAP d3 (wild-type domain 3 of human RAP, amino acids 201-319 of mature RAP) (from UniProt P30533 235-353) (ligand)”, for which the % max bind in the assay with LRP2 CR89 Y1042W (human) stood at 9%.

A word on the EC50: it is the concentration that produces a half-maximal response.
